The target in the test is yeast tubulin heterodimer, Tub1-WT (internal 6X-His) with Tub2 (S. cerevisiae (budding yeast), UniProt P09733 1-447; P02557 1-457). The test can be described thus: pull-down.
Chain of yeast tubulin heterodimer, Tub1-WT (internal 6X-His) with Tub2 (P09733 whole entry, chain 1 of 2): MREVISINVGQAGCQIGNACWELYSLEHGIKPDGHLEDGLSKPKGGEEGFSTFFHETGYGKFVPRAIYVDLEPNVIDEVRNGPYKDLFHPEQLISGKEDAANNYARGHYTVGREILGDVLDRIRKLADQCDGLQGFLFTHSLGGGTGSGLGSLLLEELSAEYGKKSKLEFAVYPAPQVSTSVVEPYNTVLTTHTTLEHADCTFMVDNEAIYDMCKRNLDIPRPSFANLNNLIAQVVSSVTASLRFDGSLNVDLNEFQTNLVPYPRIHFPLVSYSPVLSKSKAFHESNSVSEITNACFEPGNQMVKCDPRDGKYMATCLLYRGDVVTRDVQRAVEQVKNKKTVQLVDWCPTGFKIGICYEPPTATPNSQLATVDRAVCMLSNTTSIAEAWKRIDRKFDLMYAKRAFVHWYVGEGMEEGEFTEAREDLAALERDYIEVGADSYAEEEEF
Chain of yeast tubulin heterodimer, Tub1-WT (internal 6X-His) with Tub2 (P02557 whole entry, chain 2 of 2): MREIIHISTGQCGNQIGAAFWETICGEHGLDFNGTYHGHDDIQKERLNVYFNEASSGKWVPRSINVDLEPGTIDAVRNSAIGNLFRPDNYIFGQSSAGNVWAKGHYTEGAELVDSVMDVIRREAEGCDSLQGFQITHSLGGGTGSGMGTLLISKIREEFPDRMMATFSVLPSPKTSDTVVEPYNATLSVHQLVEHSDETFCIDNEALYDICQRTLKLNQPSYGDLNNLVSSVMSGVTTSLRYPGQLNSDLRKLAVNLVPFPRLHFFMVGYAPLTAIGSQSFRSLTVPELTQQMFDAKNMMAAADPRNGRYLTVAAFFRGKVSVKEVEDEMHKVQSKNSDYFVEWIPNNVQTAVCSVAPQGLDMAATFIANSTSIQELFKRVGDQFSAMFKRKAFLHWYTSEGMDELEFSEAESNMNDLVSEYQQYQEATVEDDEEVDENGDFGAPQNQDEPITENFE

B1: GST-TOG1/2 (the two TOG domains of Stu2 fused to a GST tag; Stu2 1-590) (domain or fragment, S. cerevisiae (budding yeast), UniProt P46675 1-590, looked up)
chain: MSGEEEVDYTTLPLEERLTYKLWKARLEAYKELNQLFRNSVGDISRDDNIQIYWRDPTLFAQYITDSNVVAQEQAIVALNSLIDAFASSSLKNAHNITLISTWTPLLVEKGLTSSRATTKTQSMSCILSLCGLDTSITQSVELVIPFFEKKLPKLIAAAANCVYELMAAFGLTNVNVQTFLPELLKHVPQLAGHGDRNVRSQTMNLIVEIYKVTGNNSDLLEEILFKKLKPIQVKDLHKLFAKVGDEPSSSKMLFEWEKRELEKKRSQEEEARKRKSILSNDEGEYQIDKDGDTLMGMETDMPPSKQQSGVQIDTFSMLPEETILDKLPKDFQERITSSKWKDRVEALEEFWDSVLSQTKKLKSTSQNYSNLLGIYGHIIQKDANIQAVALAAQSVELICDKLKTPGFSKDYVSLVFTPLLDRTKEKKPSVIEAIRKALLTICKYYDPLASSGRNEDMLKDILEHMKHKTPQIRMECTQLFNASMKEEKDGYSTLQRYLKDEVVPIVIQIVNDTQPAIRTIGFESFAILIKIFGMNTFVKTLEHLDNLKRKKIEETVKTLPNFSIASGSTHSTIETNKQTGPMENKFLLK
B1: the binding result is “binds”.

(Values after publication doi:10.1101/2021.12.06.471490 (bioRxiv, 2021).)
